Experimental data from paper PMC8943206 (2022).

Molecular target: T1, cGAS-His (human, UniProt Q8N884 1-522)
T1 chain: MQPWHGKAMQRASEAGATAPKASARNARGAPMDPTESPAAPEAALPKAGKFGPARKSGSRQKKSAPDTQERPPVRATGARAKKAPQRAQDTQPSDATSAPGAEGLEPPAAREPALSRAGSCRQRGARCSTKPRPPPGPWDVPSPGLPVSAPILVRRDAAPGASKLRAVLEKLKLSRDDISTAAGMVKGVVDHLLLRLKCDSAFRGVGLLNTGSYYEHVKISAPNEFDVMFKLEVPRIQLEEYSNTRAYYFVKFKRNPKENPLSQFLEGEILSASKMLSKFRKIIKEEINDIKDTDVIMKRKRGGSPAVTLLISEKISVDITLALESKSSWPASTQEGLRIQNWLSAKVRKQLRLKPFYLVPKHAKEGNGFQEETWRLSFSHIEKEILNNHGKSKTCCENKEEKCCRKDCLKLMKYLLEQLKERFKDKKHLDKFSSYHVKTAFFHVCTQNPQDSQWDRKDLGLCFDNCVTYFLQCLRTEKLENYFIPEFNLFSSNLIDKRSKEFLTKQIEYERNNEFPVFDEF
Assay: SPR

B1: GST-PCBP2 (natural protein)
chain: MDTGVIEGGLNVTLTIRLLMHGKEVGSIIGKKGESVKKMREESGARINISEGNCPERIITLAGPTNAIFKAFAMIIDKLEEDISSSMTNSTAASRPPVTLRLVVPASQCGSLIGKGGCKIKEIRESTGAQVQVAGDMLPNSTERAITIAGIPQSIIECVKQICVVMLETLSQSPPKGVTIPYRPKPSSSPVIFAGGQDRYSTGSDSASFPHTTPSMCLNPDLEGPPLEAYTIQGQYAIPQPDLTKLHQLAMQQSHFPMTHGNTGFSGIESSSPEVKGYWGLDASAQTTSHELTIPNDLIGCIIGRQGAKINEIRQMSGAQIKIANPVEGSTDRQVTITGSAASISLAQYLINVRLSSETGGMGSS
  Kd: 470 nM
